Reference: patent US20210292761, “COMPOSITIONS COMPRISING CIRCULAR POLYRIBONUCLEOTIDES AND USES THEREOF” (FLAGSHIP PIONEERING INNOVATIONS VI, LLC, published 2021)

Assays:
[1] = test system: NF-kB (endogenous, A549 cells) (Homo sapiens); assay: cell_activity; conditions: A549, day 2 (89% day 1); 1 pmol transfected; indirect evidence of binding
[2] = molecular target: T1, NF-kB p50 subunit (NFKB1) (UniProt P19838 P19838:1-433); assay: EMSA; 1 pmol RNA, 0-10 pmol p50; 20 mM Tris-HCl pH 8.0, 50 mM NaCl, 1 mM MgCl2, RT 20 min; affinity similar to linear; conditions: tags: Cayman Chemical 10009818; chain copies: 2; circular (ligated with RNA ligase 1), aptamer hairpin with poly(A) flanks; printed with T, is RNA
Procedure: (§1) Electrophoretic mobility shift assay (EMSA) was performed to assess circular RNA binding affinity to NF-kB. One pmole of linear or circular RNA was incubated with recombinant NF-kB p50 subunit (Caymen Chemical, 10009818) at varying concentrations over the RNA concentration (i.e., 0, 0.1, 1, 10 pmoles of protein) for 20 minutes at room temperature in a buffered reaction (20 mM Tris-HCl, pH 8.0, 50 mM NaCl, 1 mM MgCl2). Samples were run a 6% TBE Urea gel for 25 minutes at 200V. Gels were stained with SybrGold (Thermo Scientific, S11494) and imaged with a blue E-gel imaging system (Thermo Scientific, 4466612).

[3] = molecular target: T1, NF-kB p50 subunit (NFKB1); assay: EMSA; 1 pmol RNA, 0-10 pmol p50; 20 mM Tris-HCl pH 8.0, 50 mM NaCl, 1 mM MgCl2, RT 20 min; affinity similar to circular; conditions: tags: Cayman Chemical 10009818; chain copies: 2; linear; printed with T, is RNA
Procedure: as §1

[4] = molecular target: T1, NF-kB p50 subunit (NFKB1); assay: EMSA; scrambled control, same buffer; conditions: tags: Cayman Chemical 10009818; chain copies: 2; hairpin; printed with T, is RNA
Procedure: as §1

T1 sequence (P19838 1-433, one chain of several): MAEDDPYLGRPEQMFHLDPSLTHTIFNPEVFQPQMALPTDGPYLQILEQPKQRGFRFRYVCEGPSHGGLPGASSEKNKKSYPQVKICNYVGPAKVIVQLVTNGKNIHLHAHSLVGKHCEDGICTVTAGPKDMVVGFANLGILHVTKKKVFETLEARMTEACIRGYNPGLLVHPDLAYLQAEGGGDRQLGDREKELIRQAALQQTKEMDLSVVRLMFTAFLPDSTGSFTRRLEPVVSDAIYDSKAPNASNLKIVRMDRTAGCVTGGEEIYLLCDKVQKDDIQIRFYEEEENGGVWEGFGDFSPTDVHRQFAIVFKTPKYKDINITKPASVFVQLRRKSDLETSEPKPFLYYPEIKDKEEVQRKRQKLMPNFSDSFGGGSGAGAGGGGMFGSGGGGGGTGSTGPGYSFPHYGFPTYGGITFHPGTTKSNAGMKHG

Work on “AAAAAAAAAAGAUCUUGAAACUGUUUUAAGGUUGGCCGAUCUUAAAAAA [circular NF-kB aptamer RNA]” yielded an activity [1] of 86 % viability.

AAAAAAAAAAGAUCUUGAAACUGUUUUAAGGUUGGCCGAUCUUAAAAAA (ssRNA) [circular NF-kB aptamer RNA]: binds [2].

AAAAAAAAAAGAUCUUGAAACUGUUUUAAGGUUGGCCGAUCUUAAAAAA (ssRNA, 5' monophosphate) [linear NF-kB aptamer RNA]: binds [3].

B1: scrambled control RNA (ssRNA)
RNA: AAAAAAAUUCUCCGAACGUGUCACGUUUCAAGAGAACGUGACACGUUCGGAGAAAAAAAA
B1: no binding [4].
